“Also recorded” adds a separate entry of the source.

In data set [1] the test system is laser-induced choroidal neovascularisation. Nature of the data set: Rat laser-induced choroidal neovascularisation (CNV). Type of data set: in vivo. The following applies: Long Evans rats, intravitreal at time of lasering, analysis 7 days later. The procedure: Several antibodies were tested for their ability to block CNV in the rat. In these experiments mAbs were injected intravitreally at the time of lasering, with eyes being retrieved for analysis 7 days later (FIG. 5). Long Evans rats, aged 6-8 weeks, each received 5 retinal laser burns at the same time as intravitreal delivery of […] mAb or control IgG into both eyes. Four rats were used for each mAb, so a total of 40 lesions were analysed by staining for collagen IV and the neovascular areas quantified. […] Avastin was also tested in the rat laser model (data not shown) and observed to have no effect, consistent with Avastin having low affinity for rat VEGF.

Data set [2] has the same test system. Nature of the data set: Mouse model of laser-induced CNV. Type of data set: in vivo. Particulars: for lesion size: C57B6 mice, intravitreal. The procedure: The images on the left of FIG. 17A show a typical wild-type mouse retina under normal illumination (Fundus), and under fluorescence illumination, 7 days after three laser burns were administered to the retinal pigment epithelium. Fluorescence images were captured ˜60 seconds after systemic dosing with fluorescein (Early Phase FFA) and again after ˜7 minutes (Late Phase FFA). At the time of lasering, animals received intraocular injections of either control IgG (top panels) or 15C4 (lower panels). The Early Phase FFA images show the size of the lesions, and the Late Phase images show leakage of fluorescein into the retina. Lesion sizes were quantified for 15C4 at 2.5, 5 and 10 μg doses, and also Eylea at 2 and 4 μg, and the % blocking is a measure of average lesion size relative to that observed in the controls. On the far right a similar analysis was undertaken using Eylea and Magacizumab (both at 2.1 μg) alone and in combination.
Wild type C57B6 mice were anaesthetized and received intravitreal injections of various doses of either Magacizumab, Eylea, or both in combination, immediately following laser photocoagulation of the retinal pigment epithelium. After 7 days (to allow the vascular lesions to form) the mice were again anaesthetized and examined by fluorescein angiography (FFA). Early phase FFA images (taken after 90 s) show the degree of vascularization at the lesion site. Measurement of the lesion area in the early phase images permits quantification in which percentage lesion size is normalized against the IgG4 control (FIG. 18).

Data set [3] in a line: Analytical size exclusion chromatography. Type of data set: physicochemical. A general note: SEC sorts molecules by how far they enter the pores of the column.
For data set [4], the system named is healthy donor T cells. Nature of the data set: EpiScreen T cell proliferative assay. In kind it is cell-based, human. The following applies: 20 donor T cell samples, days 5-8. The text has this:
FIG. 21D—Summary of healthy donor T cell proliferative responses. Positive T cell responses during EpiScreen™ time course days 5-8 are shown (P). Samples inducing proliferation with SI ≥2.00 that were significant (p<0.05) were considered positive (borderline responses* SI≥1.90, p<0.05 are also shown). The frequency of positive T cell responses for proliferation are shown as a percentage at the bottom of the columns.

Data set [5] addresses T1, human Lrg1 (Homo sapiens, UniProt P02750).
T1 sequence (P02750 36-347): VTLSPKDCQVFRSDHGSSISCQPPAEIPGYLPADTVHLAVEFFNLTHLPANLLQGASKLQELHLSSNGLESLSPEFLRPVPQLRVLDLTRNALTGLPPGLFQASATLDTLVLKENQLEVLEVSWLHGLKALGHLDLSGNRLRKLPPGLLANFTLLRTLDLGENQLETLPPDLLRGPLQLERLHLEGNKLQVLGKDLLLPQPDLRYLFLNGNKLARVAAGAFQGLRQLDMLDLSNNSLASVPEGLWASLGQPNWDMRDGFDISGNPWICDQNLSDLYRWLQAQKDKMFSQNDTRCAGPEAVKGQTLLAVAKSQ
Nature of the data set: Anti-human Lrg1 competition ELISA against biotinylated mouse 15C4. In kind it is binding. Further details: made in house. Particulars: competition with biotinylated mouse 15C4. The procedure: The chimeric antibody was expressed transiently in HEK EBNA cells and stably in NS0 mouse myeloma cells, purified and tested for binding to human Lrg1 in a competition ELISA assay. A Nunc Immuno MaxiSorp 96 well flat bottom microtitre plate (Fisher, cat. no. DIS-971-030J) was pre-coated with 0.2 μg/ml hLrg1 (supplied by UCL) overnight in 0.1 N Sodium Carbonate buffer (NaHCO3) at +4° C. The following day the plate was washed 1× with PBST and blocked with 3% BSA/PBS for 1 hour at room temperature. After washing 3× with PBST, a three-fold dilution series of chimeric, mouse or control antibodies from 100 μg/ml to 0.13 μg/ml was premixed with a constant concentration of biotinylated mouse 15C4 (0.4 μg/ml, final concentration), added to the plates and incubated for 1.5 hours at room temperature. Following 3×PBST washes, the binding of the biotinylated mAb was detected with streptavidin-HRP (Sigma, cat. no. 55512) and TMB substrate (Invitrogen, cat. no. 00-2023). The reaction was stopped with 3 M HCl, absorbance read at 450 nm on a Dynex Technologies MRX TC II plate reader and the binding curves plotted.
The properties of Magacizumab were investigated. […] An anti-hLrg1 competition ELISA was carried out. […] Bound biotinylated mouse 15C4 was detected using streptavidin-peroxidase and TMB substrate. […]
A general note: An ELISA detects its analyte on a solid surface through an enzyme-linked reagent.

“Avastin: anti-VEGF antibody Bevacizumab (Avastin) [reference compound]”: the “blockade of angiogenesis (CNV)” value in data set [1] was “no effect”.

B1: Magacizumab: humanised 15C4 antibody comprising heavy chain variable regions VH5 and kappa light chain variable regions VK3 (antibody, V domains shown)
VH: QVQLVQSGAEVKKPGSSVKVSCKASGYTFSGYWMNWVRQAPGQGLEWIGQIYPGDGDTNYNGKFKGRVTITADKSTSTAYMELSSLRSEDTAVYYCARSITTVVLDYWGQGTTVTVSS
VL: DIVLTQSPDSLAVSLGERATISCRASQSVSTSGYSFMHWYQQKPGQPPKLLIKYASNLESGVPARFSGSGSGTDFTLTISSLQPEDFATYYCQHSWEMPLTFGQGTKLEIK
As for B1, the lesion size entry in data set [2] (alone, vs IgG4 control) is on record as “significant reduction in lesion size”; in data set [2] (in combination with Eylea, vs control) it was “significant reduction in lesion size”. Besides, in data set [2] (intraocular injection at lasering, FFA after 7 days), the lesion formation result is “Dose-Dependent Inhibition of Lesion Formation; also recorded: inhibit lesion formation with similar efficacy to the VEGF blocker Eylea”. Moreover, in data set [3], the “aggregation by analytical size exclusion chromatography” value was “single peak and no aggregates”. The “T cell proliferative response” value in data set [4] is given as “failed to elicit a proliferative response in any of the 20 donor T cell samples”.

B2: chimeric: murine 15C4 variable regions combined with human IgG4 (S241P) heavy chain and Kappa light chain constant regions (antibody, V domains shown)
VH: QVQLQQSGDEVVRPGSSVKISCKASGYTFSGYWMNWVKQRPGQGLQWIGQIYPGDGDTNYNGKFKGKATLTADKSSSTAYMQLSTLTSEDSAIYFCARSITTVVLDYWGQGTTLTVSS
VL: DIVLTQSPVSLAVSLGQRATISCRASQSVSTSGYSFMHWYQQKPGQPPKFLIKYASNLESGVPARFSGSGSGTDFTLNIHPVEEEDTATYYCQHSWEMPLTFGAGTKLELK
As to B2, the “binding profile / competition for binding to human Lrg1” value in data set [5] was “very similar binding profile to mouse 15C4”.

For the origin of these results see US10556007B2, “Antibody which binds Lrg1 and methods of use” (UCL Business PLC, priority 2015, dated 2020).
